Reference: paper PMC11785871, “D-Serine disrupts Cbln1 and GluD1 interaction and affects Cbln1-dependent synaptic effects and nocifensive responses in the central amygdala” (Cellular and Molecular Life Sciences: CMLS, 2025)

Assays:
[1] = target: T1, GluD1 (glutamate delta-1 receptor) (Rattus norvegicus, UniProt Q62640); assay: cell-binding assay: inhibition of rCbln1 binding to GluD1-expressing COS-7 cells; effect lost in R526K mutant; immunoblot confirmation in HEK293T; assay type: cell-based
T1 construct: gene Grid1; rat pCAGGS GluD1 plasmid expressed in COS-7 cells; with Cbln1 (recombinant, HA-tagged)

[2] = target: GluD1 (UniProt Q9ULK0); settings: cited from earlier work
[3] = target: Neurexin (UniProt P58400); settings: cited from earlier work
Chain of Neurexin (P58400 51-396): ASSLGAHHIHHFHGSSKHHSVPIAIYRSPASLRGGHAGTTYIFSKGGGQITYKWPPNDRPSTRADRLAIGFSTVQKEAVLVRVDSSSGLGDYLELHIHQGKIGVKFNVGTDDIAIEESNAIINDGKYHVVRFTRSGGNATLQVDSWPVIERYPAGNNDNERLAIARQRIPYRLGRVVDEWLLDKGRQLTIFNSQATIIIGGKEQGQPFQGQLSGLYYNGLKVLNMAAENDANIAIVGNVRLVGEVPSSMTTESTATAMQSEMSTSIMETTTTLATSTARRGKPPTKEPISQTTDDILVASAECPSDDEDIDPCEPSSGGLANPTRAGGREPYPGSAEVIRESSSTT

Chain of Cbln1 (P23435 22-193): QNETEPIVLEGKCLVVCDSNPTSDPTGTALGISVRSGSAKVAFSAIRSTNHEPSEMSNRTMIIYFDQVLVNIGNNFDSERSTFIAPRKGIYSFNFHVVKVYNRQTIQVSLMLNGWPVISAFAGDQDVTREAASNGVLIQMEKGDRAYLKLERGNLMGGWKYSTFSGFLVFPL
T1 sequence (Q62640 21-1009): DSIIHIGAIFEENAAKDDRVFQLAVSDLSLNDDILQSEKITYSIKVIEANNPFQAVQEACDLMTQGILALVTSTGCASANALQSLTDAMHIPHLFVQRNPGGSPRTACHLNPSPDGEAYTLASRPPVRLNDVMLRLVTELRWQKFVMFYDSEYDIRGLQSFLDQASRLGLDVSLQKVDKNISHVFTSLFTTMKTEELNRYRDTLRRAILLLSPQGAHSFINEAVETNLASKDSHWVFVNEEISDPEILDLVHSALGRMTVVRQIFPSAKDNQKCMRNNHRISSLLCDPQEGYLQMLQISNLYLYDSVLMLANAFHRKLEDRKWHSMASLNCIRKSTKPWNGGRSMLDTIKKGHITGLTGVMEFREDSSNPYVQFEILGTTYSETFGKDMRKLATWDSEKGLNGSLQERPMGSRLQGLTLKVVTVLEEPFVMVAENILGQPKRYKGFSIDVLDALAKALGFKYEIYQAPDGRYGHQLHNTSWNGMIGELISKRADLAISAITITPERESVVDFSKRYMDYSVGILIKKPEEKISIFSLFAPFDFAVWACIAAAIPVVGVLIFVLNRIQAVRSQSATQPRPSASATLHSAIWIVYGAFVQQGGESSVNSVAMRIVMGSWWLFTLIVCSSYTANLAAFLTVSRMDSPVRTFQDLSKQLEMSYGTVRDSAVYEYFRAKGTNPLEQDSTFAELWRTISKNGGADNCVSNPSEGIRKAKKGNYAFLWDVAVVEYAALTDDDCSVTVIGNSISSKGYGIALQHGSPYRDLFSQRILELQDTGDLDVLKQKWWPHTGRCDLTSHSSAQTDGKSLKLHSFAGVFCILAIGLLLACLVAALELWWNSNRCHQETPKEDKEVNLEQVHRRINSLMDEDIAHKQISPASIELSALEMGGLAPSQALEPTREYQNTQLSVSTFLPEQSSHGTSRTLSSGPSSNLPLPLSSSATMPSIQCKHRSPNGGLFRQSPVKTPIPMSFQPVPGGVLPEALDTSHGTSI
T1 sequence (P63182 22-193 partner): as the sequence (P23435 22-193) above
Chain of GluD1 (Q9ULK0 21-436): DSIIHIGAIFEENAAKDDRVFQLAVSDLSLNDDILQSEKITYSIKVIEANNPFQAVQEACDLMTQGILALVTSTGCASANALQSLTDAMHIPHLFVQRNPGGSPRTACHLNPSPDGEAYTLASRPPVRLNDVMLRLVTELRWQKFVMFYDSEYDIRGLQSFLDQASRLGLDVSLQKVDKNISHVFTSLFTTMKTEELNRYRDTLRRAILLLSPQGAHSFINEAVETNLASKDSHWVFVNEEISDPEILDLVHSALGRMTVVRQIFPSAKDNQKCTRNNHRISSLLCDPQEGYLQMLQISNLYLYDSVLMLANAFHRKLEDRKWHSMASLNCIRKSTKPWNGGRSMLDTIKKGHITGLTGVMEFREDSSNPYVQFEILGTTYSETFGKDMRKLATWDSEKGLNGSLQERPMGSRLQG

| IC50 [1] [nM] | Compound | Kd [2] [nM] | Kd [3] [nM] |
| --- | --- | --- | --- |
| 310000 ± 160000 | N[C@H](CO)C(=O)O [D-serine] | – | – |
| – | Cbln1 (from UniProt P23435) | 100 | 47 |
